For orientation: EC50 means the midpoint of the concentration-response curve.

Values joined by “and” are separate entries in the source; they are usually repeats but may differ in a detail not shown here. Equal entries are not always repeated.

One assay addresses T1, ErbB4 (Rattus norvegicus, UniProt Q62956).
T1 construct: forming the ErbB2/ErbB4 complex in cardiomyocytes and the ErbB2/ErbB3 complex in Schwann cells; endogenous in cells; host or cells: primary neonatal rat cardiomyocytes (Sprague Dawley pups, 0 to 4 days old)
The assay is described as follows: In vitro phosphorylation of Akt in neonatal rat cardiomyocytes. In kind it is cell-based. The note with it: for EC50: Akt (Serine 473) phosphorylation, neonatal rat cardiomyocytes, 15 minutes treatment, read-out: Cardiomyocyte (CM) (ErbB4) Avg EC50; for Selectivity SC/CM: ratio of EC50s Schwann cells/cardiomyocytes; for CM % Agonism AVG: top value of the Akt phosphorylation data points in cardiomyocytes, wild-type control 100. How it is done: (§1) In Vitro Phosphorylation of Akt in Neonatal Rat Cardiomyocytes and Rat Schwann Cells by Neuregulin Variants
(§2) Specificity of neuregulin variants towards cardiomyocytes (ErbB4) versus Schwann cells (ErbB3) was tested by measuring Akt activity generated by formation of the ErbB2/ErbB4 and ErbB2/ErbB3 complexes. Upon activation by neuregulin, the ErbB4 and ErbB3 receptors dimerize preferentially with the ErbB2 co-receptor, forming the ErbB2/ErbB4 complex in cardiomyocytes and the ErbB2/ErbB3 complex in Schwann cells, both of which signal through the Akt pathway. Neonatal rat cardiomyocytes were isolated from hearts of Sprague Dawley rat pups at 0 to 4 days old according to manufacturer's protocol using the Neomyt kit and plated on Surecoat plates in NS media containing serum (all from Cellultron Life Technologies, Baltimore, MD). Rat Schwann cells were plated in Poly-D-Lysine coated plates with Dulbecco's modified Eagle's media (DMEM) supplemented with fetal bovine serum (Thermo Fisher) and forskolin (Millipore Sigma).
(§3) After a 24-hour incubation in a humidified incubator maintained at 37° C. and 5% CO2, cardiomyocytes and Schwann cells were washed with serum free media and incubated an additional 16 hours in DMEM supplemented with bovine serum albumin (Sigma). Both cell lines were then treated with titrations of the neuregulin variant molecules for 15 minutes, upon which cells were lysed in lysis buffer (Meso Scale Discovery (MSD)). For detection of Akt phosphorylation, lysates were added to the Multi-Spot 96-Well 4-Spot Phospho (Serine 473)/Total Akt plates (MSD), incubated according to the manufacturer's protocol and read in the SECTOR Imager 6000 (MSD). For both cell assays, the percent phosphorylation of Akt was calculated by multiplying the phospho Akt signal by 2, then dividing by the phospho Akt signal added to the total Akt signal and then multiplying by 100. The phosphorylation of Akt data points were fitted using a log (agonist) versus response, variable slope (4 parameters) analysis in GraphPad Prism to generate EC50 curves. The CM % agonism reflect the top value of the data points.

Another assay has as its target T2, ErbB3 (Rattus norvegicus, UniProt Q62799).
T2 construct: forming the ErbB2/ErbB4 complex in cardiomyocytes and the ErbB2/ErbB3 complex in Schwann cells; endogenous in cells; host or cells: rat Schwann cells
Nature of the assay: In vitro phosphorylation of Akt in rat Schwann cells. The class given is cell-based. The note with it: Akt (Serine 473) phosphorylation, 15 minutes treatment, read-out: Schwann cells (SC) (ErbB3) Avg EC50. How it is done: as §1, §2, §3

T1 sequence (Q62956 26-1308): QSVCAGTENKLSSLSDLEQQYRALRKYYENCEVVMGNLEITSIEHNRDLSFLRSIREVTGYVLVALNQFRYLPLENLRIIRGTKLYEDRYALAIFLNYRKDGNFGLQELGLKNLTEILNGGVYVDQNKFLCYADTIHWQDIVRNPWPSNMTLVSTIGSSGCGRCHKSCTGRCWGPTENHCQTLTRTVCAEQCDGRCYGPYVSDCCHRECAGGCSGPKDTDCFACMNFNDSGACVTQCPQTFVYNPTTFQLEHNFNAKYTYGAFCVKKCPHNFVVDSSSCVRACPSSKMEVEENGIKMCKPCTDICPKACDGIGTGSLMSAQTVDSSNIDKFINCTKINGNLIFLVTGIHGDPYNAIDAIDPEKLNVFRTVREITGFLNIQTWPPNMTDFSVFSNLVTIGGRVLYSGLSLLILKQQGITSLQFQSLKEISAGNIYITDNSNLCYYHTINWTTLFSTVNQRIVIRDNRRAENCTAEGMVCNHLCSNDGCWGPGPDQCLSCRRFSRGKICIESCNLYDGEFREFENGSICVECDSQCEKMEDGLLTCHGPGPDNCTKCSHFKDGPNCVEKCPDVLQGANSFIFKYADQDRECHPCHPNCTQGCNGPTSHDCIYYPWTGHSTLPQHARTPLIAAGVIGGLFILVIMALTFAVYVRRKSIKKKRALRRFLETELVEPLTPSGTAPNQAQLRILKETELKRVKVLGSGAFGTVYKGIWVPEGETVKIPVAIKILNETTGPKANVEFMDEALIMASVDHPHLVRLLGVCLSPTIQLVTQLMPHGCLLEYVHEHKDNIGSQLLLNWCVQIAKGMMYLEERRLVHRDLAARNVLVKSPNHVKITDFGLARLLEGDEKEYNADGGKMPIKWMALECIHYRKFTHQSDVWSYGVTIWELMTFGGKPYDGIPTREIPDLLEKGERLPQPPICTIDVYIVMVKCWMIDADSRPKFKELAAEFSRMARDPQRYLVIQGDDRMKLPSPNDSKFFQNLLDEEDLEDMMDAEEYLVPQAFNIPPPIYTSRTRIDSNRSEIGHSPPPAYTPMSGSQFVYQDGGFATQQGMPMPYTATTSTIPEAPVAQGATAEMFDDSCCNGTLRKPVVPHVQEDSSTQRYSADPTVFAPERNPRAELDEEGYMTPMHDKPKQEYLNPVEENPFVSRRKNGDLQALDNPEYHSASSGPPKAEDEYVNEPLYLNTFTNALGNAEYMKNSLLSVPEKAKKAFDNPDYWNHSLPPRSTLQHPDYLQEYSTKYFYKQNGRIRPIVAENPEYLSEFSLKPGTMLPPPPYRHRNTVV
T1 sequence (P06494 23-1257 partner): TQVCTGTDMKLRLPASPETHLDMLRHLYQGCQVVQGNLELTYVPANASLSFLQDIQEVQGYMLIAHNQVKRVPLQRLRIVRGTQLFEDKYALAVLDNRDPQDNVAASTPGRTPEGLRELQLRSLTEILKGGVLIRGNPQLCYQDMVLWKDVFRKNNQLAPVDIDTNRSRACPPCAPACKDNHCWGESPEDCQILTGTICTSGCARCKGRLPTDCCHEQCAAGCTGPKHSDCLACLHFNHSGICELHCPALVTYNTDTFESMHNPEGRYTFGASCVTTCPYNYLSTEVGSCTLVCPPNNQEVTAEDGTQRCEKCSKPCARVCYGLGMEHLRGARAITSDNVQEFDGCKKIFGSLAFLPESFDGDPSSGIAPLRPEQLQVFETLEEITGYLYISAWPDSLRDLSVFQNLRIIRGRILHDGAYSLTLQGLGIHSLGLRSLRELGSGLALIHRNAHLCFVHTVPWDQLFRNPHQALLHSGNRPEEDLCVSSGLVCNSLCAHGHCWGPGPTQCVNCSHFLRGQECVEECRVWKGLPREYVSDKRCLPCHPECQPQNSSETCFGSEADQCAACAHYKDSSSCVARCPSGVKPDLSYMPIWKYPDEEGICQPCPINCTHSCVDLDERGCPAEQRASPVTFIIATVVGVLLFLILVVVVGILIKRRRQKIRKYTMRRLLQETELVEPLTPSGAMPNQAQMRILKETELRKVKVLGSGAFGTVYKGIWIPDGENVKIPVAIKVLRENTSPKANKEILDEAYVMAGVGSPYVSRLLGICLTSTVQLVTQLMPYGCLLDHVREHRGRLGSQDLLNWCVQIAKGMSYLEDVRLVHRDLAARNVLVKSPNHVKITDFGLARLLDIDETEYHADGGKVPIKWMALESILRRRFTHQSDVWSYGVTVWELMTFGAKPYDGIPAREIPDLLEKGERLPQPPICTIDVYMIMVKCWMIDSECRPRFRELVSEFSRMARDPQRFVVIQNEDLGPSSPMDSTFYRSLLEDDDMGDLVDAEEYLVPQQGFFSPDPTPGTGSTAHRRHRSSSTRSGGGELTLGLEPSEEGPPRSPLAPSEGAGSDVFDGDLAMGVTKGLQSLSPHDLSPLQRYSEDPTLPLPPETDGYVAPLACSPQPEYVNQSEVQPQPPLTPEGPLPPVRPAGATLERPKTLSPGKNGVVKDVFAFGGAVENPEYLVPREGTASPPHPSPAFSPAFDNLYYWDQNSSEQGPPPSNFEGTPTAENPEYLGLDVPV
T2 sequence (Q62799 20-1339): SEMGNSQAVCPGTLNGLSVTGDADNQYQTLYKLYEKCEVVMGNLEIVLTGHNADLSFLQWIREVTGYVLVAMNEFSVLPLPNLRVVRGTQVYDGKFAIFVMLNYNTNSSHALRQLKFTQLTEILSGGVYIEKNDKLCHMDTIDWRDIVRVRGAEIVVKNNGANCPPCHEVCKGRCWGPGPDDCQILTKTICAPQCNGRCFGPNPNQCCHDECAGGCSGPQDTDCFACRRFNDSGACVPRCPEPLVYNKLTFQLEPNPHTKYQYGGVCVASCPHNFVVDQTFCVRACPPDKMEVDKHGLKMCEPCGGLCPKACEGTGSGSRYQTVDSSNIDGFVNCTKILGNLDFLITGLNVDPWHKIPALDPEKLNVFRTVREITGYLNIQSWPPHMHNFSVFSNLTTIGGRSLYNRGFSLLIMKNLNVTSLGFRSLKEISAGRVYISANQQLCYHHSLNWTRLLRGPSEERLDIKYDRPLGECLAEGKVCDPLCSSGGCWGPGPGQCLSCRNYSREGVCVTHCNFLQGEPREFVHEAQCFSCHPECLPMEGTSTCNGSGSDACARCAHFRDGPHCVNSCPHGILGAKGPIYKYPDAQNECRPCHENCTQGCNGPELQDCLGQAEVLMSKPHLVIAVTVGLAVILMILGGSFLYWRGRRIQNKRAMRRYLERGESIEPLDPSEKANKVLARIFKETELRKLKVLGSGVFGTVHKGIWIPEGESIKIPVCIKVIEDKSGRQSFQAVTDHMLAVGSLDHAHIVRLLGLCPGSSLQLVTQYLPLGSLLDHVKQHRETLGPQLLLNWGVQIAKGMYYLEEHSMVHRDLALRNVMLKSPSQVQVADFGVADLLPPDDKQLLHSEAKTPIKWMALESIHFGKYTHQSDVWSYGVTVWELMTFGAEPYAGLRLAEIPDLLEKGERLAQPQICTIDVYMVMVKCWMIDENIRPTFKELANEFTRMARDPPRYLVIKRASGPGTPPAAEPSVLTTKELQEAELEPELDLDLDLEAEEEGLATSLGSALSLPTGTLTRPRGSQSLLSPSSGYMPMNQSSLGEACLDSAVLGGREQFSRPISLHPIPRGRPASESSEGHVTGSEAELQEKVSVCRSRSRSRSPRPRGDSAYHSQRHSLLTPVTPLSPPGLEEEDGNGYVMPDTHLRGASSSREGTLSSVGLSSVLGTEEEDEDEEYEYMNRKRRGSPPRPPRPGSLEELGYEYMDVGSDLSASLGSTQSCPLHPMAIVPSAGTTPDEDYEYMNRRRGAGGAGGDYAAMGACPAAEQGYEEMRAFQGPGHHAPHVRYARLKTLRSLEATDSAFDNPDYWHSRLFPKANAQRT
T2 sequence (P06494 23-1257 partner): as the sequence (P06494 23-1257 partner) above

Take “huNRG1(S177-Q237)(wt)::3x(G4Q)::huFcSEFL2 (Pb): Fc fusion of wild-type NRG1 fragment S177-Q237 [reference compound]”: in the assay with ErbB4, the EC50 turned out to be 0.21 nM and the “Selectivity SC/CM” value amounted to 0.3. For the same substance, the half-maximal effective concentration (EC50) with ErbB3 worked out at 0.07 nM.

“huNRG1(S177-S228)(wt)((G4E)2:G4)::huFcSEFL2 (Pb): Fc fusion of wild-type NRG1 fragment S177-S228 [reference compound]”: in the assay with ErbB4, the EC50 was found to be 0.084 nM, the “Selectivity SC/CM” value amounted to 0.2643 and the “CM % Agonism AVG” value worked out at 92.6%. The EC50 with ErbB3 stood at 0.0222 nM.

Consider “huNRG1(S177-F229)(NRGE1D) (E47K_D48L_F49D_M50I) huIgG1z SELF2 Fc: Fc fusion of NRG1 variant SEQ ID NO:127”, for which, in the assay with ErbB4, the EC50 amounted to 0.15 nM, the “Selectivity SC/CM” value was determined as 62.2 and the “CM % Agonism AVG” value is 88.5%. In the assay with ErbB3, the EC50 stood at 9.33 nM.

Take “huNRG1(S177-F229)(wt)::3x(G4Q)::huFcSEFL2 (Pb): Fc fusion of wild-type NRG1 fragment S177-F229 [reference compound]”: in the assay with ErbB4, the half-maximal effective concentration (EC50) is 0.34 nM and the “Selectivity SC/CM” value is 0.3.

As to “huNRG1(S177-F229)(NRGE1D) (E47S_D48S_F49E_M50L) huIgG1z SELF2 Fc: Fc fusion of NRG1 variant SEQ ID NO:128”, in the assay with ErbB4, the 50% effective concentration (EC50) was 0.37 nM, the “Selectivity SC/CM” value is listed as more than 10000 and the “CM % Agonism AVG” value was found to be 86.3%. In addition, the EC50 in the assay with ErbB3 came out at 10000 nM.

For the substance “huNRG1(S177-F229)(NRGE1C) (E47S_D48T_F49R_M50V) huIgG1z SELF2 Fc: Fc fusion of NRG1 variant SEQ ID NO:123”, in the assay with ErbB4, the concentration for a half-maximal effect (EC50) was 0.19 nM, the “Selectivity SC/CM” value was more than 10000 and the “CM % Agonism AVG” value stood at 76%. For the same substance, the EC50 in the assay with ErbB3 amounted to 10000 nM.

Take “huNRG1(S177-Q237)(wt)::GG::huFcSEFL2 (Pb): Fc fusion of wild-type NRG1 fragment S177-Q237 [reference compound]”: in the assay with ErbB4, the “Selectivity SC/CM” value is 0.4 and 0.3; the “CM % Agonism AVG” value is recorded as “Full”. The EC50 in the assay with ErbB3 was 0.112 nM and 0.15 nM.

On to “huNRG1(S177-F229)(NRGE1D) (E47T_D48S_F49L_M50L) hnIgG1z SELF2 Fc: Fc fusion of NRG1 variant SEQ ID NO:129”, for which, in the assay with ErbB4, the EC50 worked out at 0.39 nM, the “Selectivity SC/CM” value is given as more than 10000 and the “CM % Agonism AVG” value is recorded as 79.5%. Further, the 50% effective concentration (EC50) with ErbB3 was found to be 10000 nM.

Source of the values: patent US12692294B2, “Engineered NRG-1 variants with improved selectivity toward ErbB4 but not against ErbB3” (Amgen Inc., priority 2021, dated 2026).
